Data: publication PMC4602035

Assays:
[1] = target: SecYEG in nanodiscs (titration with FtsY(NBD)) (E. coli) (UniProt P0AGA2); test: other fluorescence titration
[2] = target: SecY(S111C)EG labeled with MDCC at position 111 of SecY (E. coli) (UniProt P0AGA2); test: FRET or BRET
[3] = target: nontranslating ribosomes (E. coli) (UniProt P0ADZ0); test: co-sedimentation

FtsY(A26C) labeled with NBD at position 26 (from UniProt P10121 1-497) (receptor)
Kd [1]: 160 nM

B1: FtsY(F196C) labeled with BODIPY FL at position 196 (receptor)
chain: MAKEKKRGFFSWLGFGQKEQTPEKETEVQNEQPVVEEIVQAQEPVKASEQAVEEQPQAHTEAEAETFAADVVEVTEQVAESEKAQPEAEVVAQPEPVVEETPEPVAIEREELPLPEDVNAEAVSPEEWQAEAETVEIVEAAEEEAAKEEITDEELETALAAEAAEEAVMVVPPAEEEQPVEEIAQEQEKPTKEGFCARLKRSLLKTKENLGSGFISLFRGKKIDDDLFEELEEQLLIADVGVETTRKIITNLTEGASRKQLRDAEALYGLLKEEMGEILAKVDEPLNVEGKAPFVILMVGVNGVGKTTTIGKLARQFEQQGKSVMLAAGDTFRAAAVEQLQVWGQRNNIPVIAQHTGADSASVIFDAIQAAKARNIDVLIADTAGRLQNKSHLMEELKKIVRVMKKLDVEAPHEVMLTIDASTGQNAVSQAKLFHEAVGLTGITLTKLDGTAKGGVIFSVADQFGIPIRYIGVGERIEDLRPFKADDFIEALFARED
modifications: BODIPY FL (Bpy) on cysteine 196
Kd [2]: 180 nM

B2: SRP present in the ribosome and RNC preparations (complex)
chain: MFDNLTDRLSRTLRNISGRGRLTEDNVKDTLREVRMALLEADVALPVVREFINRVKEKAVGHEVNKSLTPGQEFVKIVRNELVAAMGEENQTLNLAAQPPAVVLMAGLQGAGKTTSVGKLGKFLREKHKKKVLVVSADVYRPAAIKQLETLAEQVGVDFFPSDVGQKPVDIVNAALKEAKLKFYDVLLVDTAGRLHVDEAMMDEIKQVHASINPVETLFVVDAMTGQDAANTAKAFNEALPLTGVVLTKVDGDARGGAALSIRHITGKPIKFLGVGEKTEALEPFHPDRIASRILGMGDVLSLIEDIESKVDRAQAEKLASKLKKGDGFDLNDFLEQLRQMKNMGGMASLMGKLPGMGQIPDNVKSQMDDKVLVRMEAIINSMTMKERAKPEIIKGSRKRRIAAGCGMQVQDVNRLLKQFDDMQRMMKKMKKGGMAKMMRSMKGMMPPGFPGR
percent of ribosomes/RNCs with SRP bound [3]: 25%
